Data: patent publication US20230406948A1 (APEXIGEN, published 2023)
No end group written: not given here.

Assays:
[1] = target: T1, CD40 CLIPS peptide, residues 84-102 of CD40 (84TCEEGWHCTSEACESCVLH102) (human, linker (positions not given here) via CLIPS template (1,3-bis(bromomethyl)benzene); also: cysteine side chains coupled to CLIPS template(s), solid-phase bound peptide of Pepscan array); test: PEPSCAN-based ELISA on solid-phase CLIPS peptides
T1 construct: It is the unmutated control peptide of the mutagenesis set
T1 peptide: TCEEGWHCTSEACESCVLH
From the text: To reconstruct discontinuous epitopes of the target molecule a library of structured peptides was synthesized. This was done using Pepscan's proprietary Chemically Linked Peptides on Scaffolds (CLIPS™) technology (Pepscan Presto, Lelystad The Netherlands) (see e.g., Timmerman et al. (2007). J. Mol. Recognit. 20:283-99; Slootstra et al. (1996). Molecular Diversity 1: 87-96). CLIPS™ technology provides the ability to structure peptides into single loops, double-loops, triple loops, sheet-like folds, helix-like folds and combinations thereof. CLIPS™ templates are coupled to cysteine residues. For this experiment, the side-chains of multiple cysteines in the peptides were coupled to one or two CLIPS™ templates. […]
The binding of antibody to each of the synthesized peptides was tested in a PEPSCAN-based ELISA. […] After one hour, the color development was measured. The color development was quantified with a charge coupled device (CCD)—camera and an image processing system.

[2] = target: T2, fusion protein of rabbit Fc and 4-1 BB (UniProt Q07011 24-186); test: direct ELISA, 1 ug/ml rabbit Fc-4-1BB fusion coated, goat anti-human IgG-HRP
T2 construct: Neither the species nor the order of the parts is stated; not shown: rabbit Fc
Experimental: (§1) Binding selectivity of APX005 was assessed by direct ELISA to a panel of TNFR family proteins. A total of 1 μg/ml of fusion protein of rabbit Fc and CD40, RANK, TweakR, OX40, DR5 and 4-1 BB were coated on ELISA plates. Bound APX005 was detected using goat anti-human HRP-conjugated IgG.

[3] = target: T3, fusion protein of rabbit Fc and OX40 (UniProt P43489 29-216); test: direct ELISA, 1 ug/ml rabbit Fc-OX40 fusion coated, goat anti-human IgG-HRP
T3 construct: Neither the species nor the order of the parts is stated; not shown: rabbit Fc
T3 sequence (looked up): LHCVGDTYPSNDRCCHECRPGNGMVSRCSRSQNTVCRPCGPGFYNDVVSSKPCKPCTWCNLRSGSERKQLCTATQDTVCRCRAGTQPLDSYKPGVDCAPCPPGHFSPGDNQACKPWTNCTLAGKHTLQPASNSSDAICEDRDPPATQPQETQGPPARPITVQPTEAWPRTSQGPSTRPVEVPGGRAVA
Experimental: as §1

[4] = target: T4, fusion protein of rabbit Fc and DR5 (UniProt O14763 56-182, limits assumed); test: direct ELISA, 1 ug/ml rabbit Fc-DR5 fusion coated, goat anti-human IgG-HRP
T4 construct: Neither the species nor the order of the parts is stated; not shown: rabbit Fc
Experimental: as §1

[5] = target: T5, fusion protein of rabbit Fc and TweakR (UniProt Q9NP84 28-80, limits assumed); test: direct ELISA, 1 ug/ml rabbit Fc-TweakR fusion coated, goat anti-human IgG-HRP
T5 construct: Neither the species nor the order of the parts is stated; not shown: rabbit Fc
Experimental: as §1

[6] = target: T6, human CD40 (human, UniProt P25942 21-193); test: method not stated
T6 construct: also called immobilized human CD40
T6 sequence (P25942 21-193 limits assumed): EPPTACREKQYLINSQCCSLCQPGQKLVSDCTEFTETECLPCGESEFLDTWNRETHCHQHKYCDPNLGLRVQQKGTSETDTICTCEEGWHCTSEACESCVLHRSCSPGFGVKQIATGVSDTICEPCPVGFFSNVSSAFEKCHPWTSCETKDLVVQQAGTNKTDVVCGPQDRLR

T2 sequence (Q07011 24-186): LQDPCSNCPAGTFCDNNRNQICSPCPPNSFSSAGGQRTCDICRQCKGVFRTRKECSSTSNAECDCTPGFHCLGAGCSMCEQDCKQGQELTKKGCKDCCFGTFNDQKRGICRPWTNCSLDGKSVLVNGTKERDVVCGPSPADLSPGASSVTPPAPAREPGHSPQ
T4 sequence (O14763 56-182 limits assumed): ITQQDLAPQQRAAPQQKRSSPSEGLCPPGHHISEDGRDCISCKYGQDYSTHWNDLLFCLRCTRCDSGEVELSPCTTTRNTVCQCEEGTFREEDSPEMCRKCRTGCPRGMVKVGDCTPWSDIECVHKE

binding result [1]: binds
binding result [2]: no binding
binding result [3]: no binding
binding result [4]: no binding
binding result [5]: no binding
Kd [6]: 0.96 nM
B1: APX005, humanized version of the R-8 rabbit anti-CD40 antibody (antibody, IgG1, V domains shown)
VH: QVQLVESGGGVVQPGRSLRLSCAASGFSFSSTYVCWVRQAPGKGLEWIACIYTGDGTNYSASWAKGRFTISKDSSKNTVYLQMNSLRAEDTAVYFCARPDITYGFAINFWGPGTLVTVSS
VL: DIQMTQSPSSLSASVGDRVTIKCQASQSISSRLAWYQQKPGKPPKLLIYRASTLASGVPSRFSGSGSGTDFTLTISSLQPEDVATYYCQCTGYGISWPIGGGTKVEIK
notes: also called humanized R-8; APX005 wild type
